Test results taken from patent US20070141723A1, “Immunohistochemistry staining controls” (priority 2005, published 2007).
*: point of attachment. FITC = O=C1OC2(c3ccc(O)cc3Oc3cc(O)ccc32)c2ccc(NC(=S)*)cc21

Key:
ER peptide mimic = experiment: immunostaining of ER peptide mimic spots on matrix, semi-quantitative colour score
1D5 monoclonal antibody = experiment: Peptide ELISA of synthetic ER peptides with 1D5; assay type: binding, mouse; conditions: compared among ER peptides 3, 4 and 6
Text: Three synthetic peptides (designated as ER peptide 3, ER peptide 4, and ER peptide 6), that are representative of above consensus phage sequence, were synthesized (by SynPep Labs, Dublin, Calif. and Bachem Labs, King of Prussia, Pa.) and tested for specificity/affinity to 1D5 monoclonal antibody.

Row | Staining intensity (1-4+) (ER peptide mimic) | Substance | peptide ELISA signal (1D5 monoclonal antibody)
1 | 4 1-4+ scale | anti-human estrogen receptor mouse monoclonal antibody 1D5 | –
2 | – | Ac-DFQCPYVECVVNAPGGK (FITC) GK-CONH2 (Ac-DFQCPYVECVVNAPGGK(FITC)GK-NH2; cysteine pairing not given here) [ER peptide 3] | highest signal
